Measurements taken from US20120021993A1 (AJOU UNIVERSITY INDUSTRY ACADEMIC COOPERATION FOUNDATION, published 2012).
Substitutions are numbered along the chain they refer to. Values belong to the binder of their own block, whether it stands above or below them.

What was measured:
[1] = molecular target: T1, DcR2 (UniProt Q9UBN6 56-211, limits assumed); experiment: yeast display, flow cytometry MFI [panel KD413]
T1 sequence (looked up): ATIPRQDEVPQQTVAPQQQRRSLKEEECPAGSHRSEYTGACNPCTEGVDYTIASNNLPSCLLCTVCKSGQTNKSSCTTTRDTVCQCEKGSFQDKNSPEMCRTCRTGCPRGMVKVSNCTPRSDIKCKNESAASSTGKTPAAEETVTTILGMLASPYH

[2] = molecular target: T2, DcR1 (UniProt O14798 26-221, limits assumed); experiment: yeast display, flow cytometry MFI [panel KD413]
T2 sequence (looked up): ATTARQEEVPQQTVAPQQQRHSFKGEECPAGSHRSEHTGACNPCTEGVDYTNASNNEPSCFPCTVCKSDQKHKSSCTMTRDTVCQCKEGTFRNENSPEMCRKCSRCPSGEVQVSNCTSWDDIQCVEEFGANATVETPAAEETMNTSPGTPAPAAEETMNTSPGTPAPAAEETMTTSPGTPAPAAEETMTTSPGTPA

[3] = molecular target: T1, DcR2; experiment: yeast display, flow cytometry MFI [panel KD506]
[4] = molecular target: T3, human-derived cell death receptor 4, extracellular domain (amino acid residues 1-216), 6xHis tag (human, UniProt O00220 24-239); experiment: yeast display, flow cytometry MFI [panel KD506]
T3 construct: extracellular domain; Expressed in E. coli; biotinylated for sorting and flow cytometry; residues 1-216; also called DR4; TRAIL-receptor 1
T3 sequence (O00220 other isoform, or with tags, fused parts or gaps): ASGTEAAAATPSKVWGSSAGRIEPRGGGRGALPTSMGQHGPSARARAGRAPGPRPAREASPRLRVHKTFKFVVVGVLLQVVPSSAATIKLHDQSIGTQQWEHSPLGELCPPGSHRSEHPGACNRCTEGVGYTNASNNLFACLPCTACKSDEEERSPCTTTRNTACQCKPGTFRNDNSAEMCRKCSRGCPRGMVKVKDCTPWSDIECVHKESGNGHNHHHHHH

[5] = molecular target: T2, DcR1; experiment: yeast display, flow cytometry MFI [panel KD506]
[6] = molecular target: T1, DcR2; experiment: yeast display, flow cytometry MFI [panel KD415]
[7] = molecular target: T2, DcR1; experiment: yeast display, flow cytometry MFI [panel KD415]
[8] = molecular target: T1, DcR2; experiment: yeast display, flow cytometry MFI [panel KD548]
[9] = molecular target: T2, DcR1; experiment: yeast display, flow cytometry MFI [panel KD548]
[10] = molecular target: T1, DcR2; experiment: ELISA, coated target, single binder concentration not given, A405
Experimental: (§1) In order to measure the affinity and cross reactivity of the anti-DR4, -DR5 and -TNFα protein scaffold variants based on the Kringle domain structure to the target molecules, an enzyme-linked immunosorbent assay (ELISA) was performed. The target molecules DR4, DR5, TNFα and DcR1, DcR2 were attached to a 96 well EIA/RIA plate (COSTARCorning In., USA) by its reaction at 37° C. for 1 hour, and washed three times with 0.1% PBST (0.1% Tween20, pH 7.4, 137 mM NaCl, 10 mM Phosphate, 2.7 mM KCl, SIGMA-ALDRICH Co., USA) for 10 minutes. The target molecules were attached for 1 hour to a 96 well EIA/RIA plate in 1% PBSB (1% BSA, pH 7.4, 137 mM NaCl, 10 mM Phosphate, 2.7 mM KCl, SIGMA-ALDRICH Co., USA), and then washed three times with 0.1% PBST (0.1% Tween 20, pH 7.4, 137 mM NaCl, 10 mM Phosphate, 2.7 mM KCl, SIGMA-ALDRICH Co., USA) for 10 minutes. Then, the anti-DR4, -DR5 and -TNFα Kringle domain variants were bound, and washed three times with 0.1% PBST for 10 minutes. The anti-DR4, -DR5 and -TNFα Kringle domain variants were primarily bound to mouse-derived anti-c-myc 9e10 mAb (Ig Therapy, Korea), and secondarily bound to alkaline phosphatase (AP)-conjugated anti-mouse mAb (Sigma). Each of the Kringle domain variants was reacted with […] (pNPP, Sigma-aldrich Co., USA) and quantified at an absorbance of 405 nm.

[11] = molecular target: T3, human-derived cell death receptor 4, …; experiment: as above
Experimental: as §1

[12] = molecular target: T2, DcR1; experiment: as above
Experimental: as §1

[13] = molecular target: T4, human-derived cell death receptor 5, extracellular domain (amino acid residues 1-130), 6xHis tag (human, UniProt O14763 56-210); experiment: ELISA, coated target, A405
T4 construct: extracellular domain; Expressed in E. coli; biotinylated for sorting and flow cytometry; also called DR5; TRAIL-receptor 2
T4 sequence (O14763 other isoform, or with tags, fused parts or gaps limits assumed, form in doubt): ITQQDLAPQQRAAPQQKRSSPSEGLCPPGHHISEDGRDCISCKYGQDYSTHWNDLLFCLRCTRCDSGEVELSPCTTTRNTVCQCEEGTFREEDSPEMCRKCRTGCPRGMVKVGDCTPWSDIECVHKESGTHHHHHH
Experimental: as §1

[14] = molecular target: T3, human-derived cell death receptor 4, …; experiment: ELISA, coated target, A405
[15] = molecular target: T5, TNFα, extracellular domain (amino acid residue 1-157), 6xHis tag (human, UniProt P01375 57-233); experiment: ELISA, coated target, A405
T5 construct: extracellular domain; Expressed in E. coli; The printed residues 1-157 seem to count on the soluble form, not on the precursor; also called human TNFα; tumor necrosis factor alpha
T5 sequence (P01375 other isoform, or with tags, fused parts or gaps limits assumed): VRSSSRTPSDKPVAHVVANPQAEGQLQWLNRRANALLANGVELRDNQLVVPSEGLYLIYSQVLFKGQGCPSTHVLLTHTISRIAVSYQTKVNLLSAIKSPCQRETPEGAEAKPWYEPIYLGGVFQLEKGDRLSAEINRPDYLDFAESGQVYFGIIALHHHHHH
Experimental: as §1

- binding result [1]: no binding
- binding result [2]: no binding
B1: KD413L56 (designed binder)
chain: CMHCSGENYDGKISKTMSGLECQAWDSQSPHAHGYIPSKFPNKNLKKNYCRNPDPRAGPWCFTHGNRNRYELCDIPRC

- binding result [3]: no binding
- binding result [5]: no binding
B2: L56 (KD506) (designed binder)
chain: B1 chain with P55Y, R56E, A57T, H64N, G65R, N66Y, R69K, Y70N
notes: also called KD506L56
- binding result [4]: no binding

- binding result [6]: no binding
- binding result [7]: no binding
B3: L5 (KD415) (designed binder)
chain: B1 chain with R56Q, A57D, G58Q, H64T, G65D, N66P, R67N, N68K, Y70W
notes: also called KD415L5

- binding result [1]: no binding
- binding result [2]: no binding
B4: L5 (KD413) (designed binder)
chain: B1 chain with H64T, G65D, N66P, R67N, N68K, Y70W
notes: also called KD413L5

- binding result [3]: no binding
- binding result [5]: no binding
B5: L5 (KD506) (designed binder)
chain: B1 chain with P55Y, R56E, A57T, H64T, G65D, N66P, R67N, N68K, Y70W
notes: also called KD506L5
- binding result [4]: no binding

- binding result [1]: no binding
- binding result [2]: no binding
B6: L567 (KD413) (designed binder)
chain: B1 chain with D74N, I75Q
notes: also called KD413L567

- binding result [6]: no binding
- binding result [7]: no binding
B7: KD415L567 (designed binder)
chain: CMHCSGENYDGKISKTMSGLECQAWDSQSPHAHGYIPSKFPNKNLKKNYCRNPDPQDQPWCFTNRHQHKNELCNQPRC

- binding result [3]: no binding
- binding result [5]: no binding
B8: KD506L567 (designed binder)
chain: B7 chain with P55Y, Q56E, D57T, Q58G, H66Y, Q67R, H68N, N74H, Q75E
- binding result [4]: no binding

- binding result [8]: no binding
- binding result [9]: no binding
B9: KD548L56 (designed binder)
chain: B1 chain with P55N, R56K, A57H, G58E, N66H, N68D, R69K, Y70H

- binding result [8]: no binding
- binding result [9]: no binding
B10: L567 (KD548) (designed binder)
chain: CMHCSGENYDGKISKTMSGLECQAWDSQSPHAHGYIPSKFPNKNLKKNYCRNPDNKHEPWCFTHGHRDKHELCHEPRC
notes: also called KD548L567; not shown: Aga2p display anchor, linker and c-myc tag of the pCTCON yeast display vector

- binding result [6]: no binding
- binding result [7]: no binding
B11: L56 (KD415) (designed binder)
chain: B7 chain with N74D, Q75I
notes: also called KD415L56

- binding result [6]: no binding
- binding result [7]: no binding
B12: L1234 (KD415) (designed binder)
chain: CTRSKGDEYDGHKHKTNRGLRCQHWPGTKPHFHGDKIKDRHGFRLKKNYCRNPDRELRPWCFTTDPNKRWELCDIPRC
notes: also called KD415L1234

- binding result [10]: no binding
- binding result [12]: no binding
B13: KD503 (designed binder)
chain: CTQTKGHRYDGYKYETNWGHQCQAWTKHKPHLHGNGHRNRHKVGHEKNYCRNPDHRDGPWCFTNQYENENELCHQPRC
- binding result [11]: no binding
- EC50 (read off the curve) [13]: ~0.4 µM

B14: KD413-KD415 hetero-dimer (designed binder, not shown: small tags and cut ends)
chain: CAKAEGTGYDGHEHKTHKGIRCQNWYKSKPHYHGHQFRDGDKIKNKKNYCRNPDPRAGPWCFTHGNRNRYELCNQPRCGGGGSGGGGSGGGGSGGGGSCTRSKGDEYDGHKHKTNRGLRCQHWPGTKPHFHGDKIKDRHGFRLKKNYCRNPDPQDQPWCFTNRHQHKNELCNQPRC
- EC50 (read off the curve) [14]: ~0.03 µM

- binding result [10]: no binding
- binding result [12]: no binding
B15: KD502 (designed binder)
chain: CAEDKGARYDGYQYRTHKGIKCQPWYQHEPHYHGHKDKIRHKNRNKKNYCRNPDAGDRPWCFTHRDKYEHELCNRPRC
- binding result [11]: no binding
- EC50 (read off the curve) [13]: ~2 µM

- binding result [3]: no binding
- binding result [5]: no binding
B16: L1234 (KD506) (designed binder)
chain: CPEDRGHEYDGDGDKTNRGHGCQYWDQNKPHHHGHRDKDKFKHRIKKNYCRNPDRELRPWCFTTDPNKRWELCDIPRC
notes: also called KD506L1234
- binding result [4]: no binding

- binding result [8]: no binding
- binding result [9]: no binding
B17: L1234 (KD548) (designed binder)
chain: CHQTQGPKYDGNKDKTHKGHKCQSWTKNRPHHHGNKIENEDENRFQKNYCRNPDRELRPWCFTTDPNKRWELCDIPRC
notes: also called KD548L1234

B18: KDT02 (designed binder)
chain: CAQDGGPGYDGDKHGTHGGHECQDWTKDGPHIHGFRDQFRDEDQHGKNYCRNPDSQHGPWCFTNEDEHRNELCHEPRC
notes: Soluble monomer from Pichia pastoris; also called KRT02; not shown: C-terminal myc tag-6xHis tag of pPICZaA
- EC50 (read off the curve) [15]: ~2 µM
- binding result [11]: no binding

- binding result [1]: no binding
- binding result [2]: no binding
B19: L1234 (KD413) (designed binder)
chain: CAKAEGTGYDGHEHKTHKGIRCQNWYKSKPHYHGHQFRDGDKIKNKKNYCRNPDRELRPWCFTTDPNKRWELCDIPRC
notes: also called KD413L1234

B20: KDT01 (designed binder)
chain: CYEDKGPQYDGDEYGTHKGHRCQNWDENRPHPHGIGHQHKHQVKDGKNYCRNPDDETEPWCFTHKDKYGHELCNRPRC
notes: Soluble monomer from Pichia pastoris; also called KRT01; not shown: C-terminal myc tag-6xHis tag of pPICZaA
- EC50 (read off the curve) [15]: ~2 µM
- binding result [11]: no binding

B21: KD542 (designed binder)
chain: CNRAGGHKYDGDRYRTHRGDGCQNWAKTKPHHHGIGHRDKIRDKYRKNYCRNPDAKNGPWCFTNRNGDKNELCIQPRC
notes: Soluble monomer from Pichia pastoris; not shown: C-terminal myc tag-6xHis tag of pPICZaA
- binding result [11]: binds
- EC50 (read off the curve) [13]: ~5 µM
